Results: paper PMC6362314, “Both a Unique Motif at the C Terminus and an N-Terminal HEAT Repeat Contribute to G-Quadruplex Binding and Origin Regulation by the Rif1 Protein” (Molecular and Cellular Biology, 2018)

B1: Rif1 C-terminal 148-aa polypeptide (aa 1253 to 1400) (domain or fragment, S. pombe, UniProt Q96UP3 1253-1400, looked up)
chain: SSNVNKEVAISEVSATLENVEVIERHGISEQGQNLDESACVLTNESSLSQTEIPEEKTENETTAVNGFENSKKRQFSSLLSGSIDTNNESNKVSSVEFDKSGPQDIIQSMTEATFEIEKNIQDLKSEEVQKLSDLLMRLQRAILSRIA
notes: Rif1, fission yeast (S. pombe), 1,400 amino acids; residues 1253-1400; source: E. coli, purified (nickel column, Mono Q column if necessary)
B2: Rif1 C-terminal 229-aa polypeptide (aa 1172 to 1400) (domain or fragment, S. pombe, UniProt Q96UP3 1172-1400, looked up)
chain: AIDVADNSNALLKENISSQSNRKADNNGTPSVNNSFTTANNDECSKENSQIEPEGQTASREGVLSTPRSTRKKRKLGRKSQSSNVNKEVAISEVSATLENVEVIERHGISEQGQNLDESACVLTNESSLSQTEIPEEKTENETTAVNGFENSKKRQFSSLLSGSIDTNNESNKVSSVEFDKSGPQDIIQSMTEATFEIEKNIQDLKSEEVQKLSDLLMRLQRAILSRIA
notes: Rif1, fission yeast (S. pombe), 1,400 amino acids; residues 1172-1400; source: E. coli, purified (nickel column, Mono Q column if necessary)
B3: Rif1 C-terminal 272-aa polypeptide (aa 1129 to 1400), wild type (domain or fragment, S. pombe, UniProt Q96UP3 1129-1400, looked up)
chain: KIDETKNEATDMEESLTTPSGKVNKEVIVDDTSLRDEAIVPDKAIDVADNSNALLKENISSQSNRKADNNGTPSVNNSFTTANNDECSKENSQIEPEGQTASREGVLSTPRSTRKKRKLGRKSQSSNVNKEVAISEVSATLENVEVIERHGISEQGQNLDESACVLTNESSLSQTEIPEEKTENETTAVNGFENSKKRQFSSLLSGSIDTNNESNKVSSVEFDKSGPQDIIQSMTEATFEIEKNIQDLKSEEVQKLSDLLMRLQRAILSRIA
notes: Rif1, fission yeast (S. pombe), 1,400 amino acids; C-terminal polypeptides were also made in 293T cells (N-terminal His6, C-terminal Flag3); also called Rif1(aa1129-1400); C-terminal polypeptide; source: E. coli, purified (nickel column, Mono Q column if necessary)
B4: Rif1 C-terminal 91-aa polypeptide (aa 1310 to 1400) (domain or fragment, S. pombe, UniProt Q96UP3 1310-1400, looked up)
chain: TENETTAVNGFENSKKRQFSSLLSGSIDTNNESNKVSSVEFDKSGPQDIIQSMTEATFEIEKNIQDLKSEEVQKLSDLLMRLQRAILSRIA
notes: Rif1, fission yeast (S. pombe), 1,400 amino acids; residues 1310-1400; also called C-terminal 91 amino acids; source: E. coli, purified (nickel column, Mono Q column if necessary)

Biological target: the molecule itself
Assay: native gel or EMSA; purified Rif1 C-terminal polypeptides on a native protein gel (5% to 20% gradient gel), CBB staining; self-association

Stoichiometry N, ≤ 16 subunits:
B1, B2, B3, B4
